Reference: patent US20250340854, “ENGINEERED Cas12f PROTEIN” (THE UNIVERSITY OF TOKYO, published 2025)
Positions count from the first letter of the chain named. In names and notes the source's numbering stands.

Experiments:
Cas12f RARR = target: T1, Cas12f RARR (uncultured archaeon, UniProt A0A482D308 SEQ:1-529, I118R,Y122A,I126R,M178R); assay: size exclusion co-elution; 5 mM MgCl2, 50 mM NaCl, pH 8.0; details: tags: N-terminal His6; chain copies: 2 (stated)
T1 sequence: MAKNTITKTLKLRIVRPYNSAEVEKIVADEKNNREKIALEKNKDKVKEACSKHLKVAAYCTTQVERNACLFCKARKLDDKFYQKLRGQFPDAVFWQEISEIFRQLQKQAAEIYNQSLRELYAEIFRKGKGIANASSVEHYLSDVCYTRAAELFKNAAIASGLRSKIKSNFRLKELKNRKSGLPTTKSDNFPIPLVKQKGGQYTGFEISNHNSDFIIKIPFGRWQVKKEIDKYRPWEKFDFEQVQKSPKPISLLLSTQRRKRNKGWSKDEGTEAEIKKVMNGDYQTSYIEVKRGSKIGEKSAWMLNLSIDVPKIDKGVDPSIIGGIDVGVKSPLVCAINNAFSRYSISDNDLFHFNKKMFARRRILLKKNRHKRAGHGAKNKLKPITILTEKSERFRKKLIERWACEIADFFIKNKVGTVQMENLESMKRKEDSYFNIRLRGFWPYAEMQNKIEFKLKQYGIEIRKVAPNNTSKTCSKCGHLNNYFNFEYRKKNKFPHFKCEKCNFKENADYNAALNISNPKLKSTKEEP
Experimental: (§1) The peak fraction was analyzed by SDS-PAGE and Urea PAGE. The WT Cas12f protein and the RARR mutant were each eluted together with sgRNA at the same position.

Cas12f (Cas12f1, Cas14a) = target: T2, Cas12f (Cas12f1, Cas14a) (uncultured archaeon, UniProt A0A482D308 SEQ:1-529); assay: as above; details: tags: N-terminal His6; chain copies: 2 (stated)
T2 sequence: T1 sequence with R118I, A122Y, R126I, R178M
Experimental: as §1

B1: WT sgRNA (ssRNA)
RNA: GGUUCACUGAUAAAGUGGAGAACCGCUUCACCAAAAGCUGUCCCUUAGGGGAUUAGAACUUGAGUGAAGGUGGGCUGCUUGCAUCAGCCUAAUGUCGAGAAGUGCUUUCUUCGGAAAGUAACCCUCGAAACAAAUUCAUUUGAAAGAAUGAAGGAAUGCAACGGAAAUUAGGUGCGCUUGGC
B1: binds (Cas12f RARR); binds (Cas12f (Cas12f1, Cas14a)).

B2: Cas12f I118R mutant (protein)
chain: T1 sequence with A122Y, R126I, R178M
In the case of B2, the “in vitro DNA cleavage activity” value is reported as “reduced the DNA cleavage activity”.

B3: Cas12f M178R mutant (protein)
chain: T1 sequence with R118I, A122Y, R126I
With B3 the “in vitro DNA cleavage activity” value was “reduced the DNA cleavage activity”.

B4: Cas12f I118R/Y122A/I126R/M178R (RARR) mutant (protein)
chain: T1 sequence
For B4, the “in vitro DNA cleavage activity” value was “lacked the DNA cleavage activity”.

B5: Cas12f I126R mutant (protein)
chain: T1 sequence with R118I, A122Y, R178M
In the case of B5, the “in vitro DNA cleavage activity” value is reported as “reduced the DNA cleavage activity”.

B6: Cas12f Y122A mutant (protein)
chain: T1 sequence with R118I, R126I, R178M
With B6 the “in vitro DNA cleavage activity” value was “reduced the DNA cleavage activity”.
